Assay results from article PMC11091212.

Columns and labels:
[1] = target: Microfibril-associated glycoprotein 4 (human) (UniProt P55083); assay: SPR; Ca2+; settings: domain or fragment
[2] = target: Microfibril-associated glycoprotein 4 (human) (UniProt P55083); assay: SPR; Ca2+ form (octamer): MFAP4 or MFAP4_(C34S) amine-coupled on CM5 (Biacore X), elastogenic proteins as analytes 5-100 µg/mL in TBS/Ca2+ (2 mM CaCl2); 1:1 Langmuir fit, KD is the average over five concentrations

Chain of Microfibril-associated glycoprotein 4 (human) (P55083 22-255): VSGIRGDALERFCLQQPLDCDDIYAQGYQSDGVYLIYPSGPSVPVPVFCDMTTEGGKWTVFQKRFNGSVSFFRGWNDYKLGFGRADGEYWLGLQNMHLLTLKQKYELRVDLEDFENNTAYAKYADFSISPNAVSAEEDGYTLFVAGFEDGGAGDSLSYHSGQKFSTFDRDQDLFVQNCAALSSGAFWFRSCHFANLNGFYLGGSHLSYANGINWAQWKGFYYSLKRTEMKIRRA

Row | Kd [1] [µM] | Kd [2] [µM] | Substance
1 | 0.016 | – | N-terminal half of LTBP4S
2 | – | 0.015 | latent transforming growth factor beta binding protein-4, short isoform (natural protein)
3 | – | 0.0018 | recombinant N-terminal half of fibrillin-1 (domain or fragment)
